This note sets out measurements from patent publication US20210261648A1 (published 2021).

Broadly, the Kd is the equilibrium constant for the complex coming apart. Low readings indicate higher affinity, high ones lower affinity.

Assay [1] concerns the target T1, FcγRIIb extracellular domain with C-terminal His tag (human, UniProt P31994 43-217).
T1 construct: extracellular domain; For crystals it was expressed with kifunensine and trimmed with Endo F1; also called FcgRIIb; FcγRIIb extracellular region
T1 sequence (looked up): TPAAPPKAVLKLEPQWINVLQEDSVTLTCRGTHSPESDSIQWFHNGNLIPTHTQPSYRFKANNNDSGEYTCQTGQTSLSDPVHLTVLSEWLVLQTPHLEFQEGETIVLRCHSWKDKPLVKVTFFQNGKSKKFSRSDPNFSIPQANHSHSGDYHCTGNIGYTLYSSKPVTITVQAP
Put plainly: SPR (Biacore), relative amount of binding. For orientation: Surface plasmon resonance follows binding to a sensor surface in real time, without labels.

Assay [2] deals with T2, FcγRIIa type H extracellular domain with C-terminal His tag (human, UniProt P12318 34-217).
T2 construct: extracellular domain; also called FcgRIIaH; FcγRIIa H
T2 sequence (looked up): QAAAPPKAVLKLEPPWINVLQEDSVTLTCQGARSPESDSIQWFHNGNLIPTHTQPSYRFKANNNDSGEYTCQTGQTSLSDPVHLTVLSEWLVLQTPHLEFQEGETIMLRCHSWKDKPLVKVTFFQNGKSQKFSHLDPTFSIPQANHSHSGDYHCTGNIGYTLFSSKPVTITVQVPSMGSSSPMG
Put plainly: SPR (Biacore), relative amount of binding.

For assay [3], the target named is T2, FcγRIIa type H extracellular domain …. As to the kind of experiment: SPR (Biacore).
Assay [4] has as its target T3, FcγRIa extracellular domain with C-terminal His tag (human, UniProt P12314 16-292).
T3 construct: Whole entry named; also called FcgRIa; CD64A
As to the kind of experiment: SPR (Biacore).
T3 sequence (P12314 16-292): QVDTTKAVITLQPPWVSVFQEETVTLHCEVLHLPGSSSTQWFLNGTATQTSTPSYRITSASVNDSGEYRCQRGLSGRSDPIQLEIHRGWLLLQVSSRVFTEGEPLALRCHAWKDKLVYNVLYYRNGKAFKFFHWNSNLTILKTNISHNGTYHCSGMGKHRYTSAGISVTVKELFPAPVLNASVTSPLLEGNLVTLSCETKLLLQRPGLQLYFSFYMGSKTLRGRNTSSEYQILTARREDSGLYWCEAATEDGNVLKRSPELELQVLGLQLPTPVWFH

In assay [5] the target is T1, FcγRIIb extracellular domain with …. As to the kind of experiment: SPR (Biacore).
The target of assay [6] is T4, FcγRIIIa type V extracellular domain with C-terminal His tag (human, UniProt P08637 17-208).
T4 construct: extracellular domain; Allotype V158 (type V); also called FcgRIIIaV; FcγRIIIaV
T4 sequence (P08637 17-208 F176V): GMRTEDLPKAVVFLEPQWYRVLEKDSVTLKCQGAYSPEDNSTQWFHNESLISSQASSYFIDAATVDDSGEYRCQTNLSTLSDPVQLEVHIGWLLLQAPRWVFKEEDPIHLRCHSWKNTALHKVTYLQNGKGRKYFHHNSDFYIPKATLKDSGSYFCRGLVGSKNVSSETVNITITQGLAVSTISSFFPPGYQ
As to the kind of experiment: SPR (Biacore).

For assay [7], the target named is T5, FcγRIIb extracellular domain with C-terminal His tag (human, UniProt P31994 43-217).
T5 construct: extracellular domain; For crystallography it was expressed with kifunensine and trimmed with Endo F1; also called FcgRIIb; FcγRIIb extracellular region; not shown: His tag attached to the C terminus
T5 sequence (looked up): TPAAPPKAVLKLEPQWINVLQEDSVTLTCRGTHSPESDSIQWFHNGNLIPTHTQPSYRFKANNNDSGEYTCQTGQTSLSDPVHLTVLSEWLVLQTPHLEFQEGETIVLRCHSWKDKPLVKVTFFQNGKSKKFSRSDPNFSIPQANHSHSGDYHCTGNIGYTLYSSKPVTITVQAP
As to the kind of experiment: SPR; KD for FcγRIIaH divided by KD for FcγRIIb.

Assay [8] has as its target T6, FcγRIIa type R extracellular domain with C-terminal His tag (human, UniProt P12318 34-217).
T6 chain: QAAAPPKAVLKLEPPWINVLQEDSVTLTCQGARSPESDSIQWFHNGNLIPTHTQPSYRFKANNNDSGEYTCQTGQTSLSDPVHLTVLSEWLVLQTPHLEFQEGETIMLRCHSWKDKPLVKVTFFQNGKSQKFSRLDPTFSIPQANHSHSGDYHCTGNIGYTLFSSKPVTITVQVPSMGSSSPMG
Put plainly: SPR; KD of IL6R-B3/IL6R-L divided by KD of the variant.

In assay [9] the target is T5, FcγRIIb extracellular domain with …. The description is as above.
For assay [10] the target is unchanged. Put plainly: SPR; KD for FcγRIIaR divided by KD for FcγRIIb.
Assay [11] has as its target T6, FcγRIIa type R extracellular domain …. As to the kind of experiment: SPR (Biacore), antibody captured, FcγR as analyte.
Assay [12] concerns the target T7, FcγRIa extracellular domain with C-terminal His tag (human, UniProt P12314 16-292).
T7 construct: also called FcgRIa; not shown: His tag attached to the C terminus
Put plainly: SPR (Biacore), antibody captured, FcγR as analyte.
T7 sequence (P12314 16-292): as the sequence (P12314 16-292) above

Assay [13] addresses T8, FcγRIIa type H extracellular domain with C-terminal His tag (human, UniProt P12318 34-217).
T8 construct: extracellular domain; also called FcγRIIaH; FcgRIIaH; not shown: His tag attached to the C terminus
T8 sequence (looked up): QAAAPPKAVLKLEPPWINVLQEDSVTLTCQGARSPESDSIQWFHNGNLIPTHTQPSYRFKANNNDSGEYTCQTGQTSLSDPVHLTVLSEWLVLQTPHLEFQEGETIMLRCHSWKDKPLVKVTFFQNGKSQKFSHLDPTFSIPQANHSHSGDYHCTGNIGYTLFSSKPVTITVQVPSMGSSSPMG
Put plainly: SPR (Biacore), antibody captured, FcγR as analyte.

The target of assay [14] is T5, FcγRIIb extracellular domain with …. Put plainly: SPR (Biacore), antibody captured, FcγR as analyte.

B1: B3 variant of GpH7-B3/GpL16-k0 with Pro at position 238 (EU numbering) substituted with Asp (antibody, human IgG1, kappa)
heavy: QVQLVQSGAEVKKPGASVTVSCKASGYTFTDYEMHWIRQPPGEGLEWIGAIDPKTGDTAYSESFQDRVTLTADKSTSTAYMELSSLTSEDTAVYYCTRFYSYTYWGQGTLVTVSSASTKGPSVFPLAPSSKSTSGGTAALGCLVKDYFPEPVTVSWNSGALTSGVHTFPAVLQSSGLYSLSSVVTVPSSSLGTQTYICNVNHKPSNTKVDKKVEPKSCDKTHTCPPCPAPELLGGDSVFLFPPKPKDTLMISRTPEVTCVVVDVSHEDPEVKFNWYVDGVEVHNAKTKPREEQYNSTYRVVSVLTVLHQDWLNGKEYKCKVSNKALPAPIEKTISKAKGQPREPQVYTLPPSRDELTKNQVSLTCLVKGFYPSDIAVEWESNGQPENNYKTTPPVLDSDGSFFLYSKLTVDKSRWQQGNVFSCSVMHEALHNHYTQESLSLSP
light: DIVMTQSPLSLPVTPGEPASISCQASESLVHSNRNTYLHWYLQKPGQSPQLLIYKVSNRFSGVPDRFSGSGSGTDFTLKISRVEAEDVGVYYCSQNTHVPPTFGQGTKVEIERTVAAPSVFIFPPSDEQLKSGTASVVCLLNNFYPREAKVQWKVDNALQSGNSQESVTEQDSKDSTYSLSSTLTLSKADYEKHKVYACEVTHQGLSSPVTKSFNRGEC
notes: also called mutation A
As for B1, the binding result in assay [1] is “binds”.

B2: B3 variant of GpH7-B3/GpL16-k0 with Leu at position 328 (EU numbering) substituted with Glu (antibody, human IgG1, kappa)
heavy: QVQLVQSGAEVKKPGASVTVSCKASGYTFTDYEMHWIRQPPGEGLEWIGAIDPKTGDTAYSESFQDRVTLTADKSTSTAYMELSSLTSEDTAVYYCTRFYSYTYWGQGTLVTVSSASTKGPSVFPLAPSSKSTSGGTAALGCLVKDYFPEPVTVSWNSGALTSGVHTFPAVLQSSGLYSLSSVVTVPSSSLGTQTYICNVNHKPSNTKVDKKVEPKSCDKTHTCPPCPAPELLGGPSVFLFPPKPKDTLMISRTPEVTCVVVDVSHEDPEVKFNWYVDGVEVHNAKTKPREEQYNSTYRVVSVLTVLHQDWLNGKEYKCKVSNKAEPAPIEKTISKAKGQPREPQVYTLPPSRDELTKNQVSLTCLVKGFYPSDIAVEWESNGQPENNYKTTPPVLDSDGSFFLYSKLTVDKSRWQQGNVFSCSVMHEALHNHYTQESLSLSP
light: DIVMTQSPLSLPVTPGEPASISCQASESLVHSNRNTYLHWYLQKPGQSPQLLIYKVSNRFSGVPDRFSGSGSGTDFTLKISRVEAEDVGVYYCSQNTHVPPTFGQGTKVEIERTVAAPSVFIFPPSDEQLKSGTASVVCLLNNFYPREAKVQWKVDNALQSGNSQESVTEQDSKDSTYSLSSTLTLSKADYEKHKVYACEVTHQGLSSPVTKSFNRGEC
notes: also called mutation B
With B2, the binding result in assay [2] and in [1] was “binds” throughout.

B3: IL6R-BP478/IL6R-L (antibody, human IgG4 S228P, kappa)
heavy: QVQLQESGPGLVKPSETLSLTCAVSGHSISHDHAWSWVRQPPGEGLEWIGFISYSGITNYNPSLQGRVTISRDNSKNTLYLQMNSLRAEDTAVYYCARSLARTTAMDYWGEGTLVTVSSASTKGPSVFPLAPCSRSTSESTAALGCLVKDYFPEPVTVSWNSGALTSGVHTFPAVLQSSGLYSLSSVVTVPSSSLGTKTYTCNVDHKPSNTKVDKRVESKYGPPCPPCPAPDLLGDDSVFLFPPKPKDTLMISRTPEVTCVVVDVSDEDGEVKFNWYVDGVEVHNAKTKPREEQDNSTYRVVSVLTVLHQDWLNGKEYKCKVSNKALPRPIEKTISKAKGQPREPQVYTLPPSRDELTKNQVSLTCLVKGFYPSDIAVEWESNGQPENNYKTTPPVLDSDGSFFLYSKLTVDKSRWQQGNVFSCSVMHEALHNHYTQESLSLSP
light: not shown
B3: the binding result in [3], in assay [4] and in assay [6] was “binds” throughout. Further, the “fold increase of binding against IL6R-BP230/IL6R-L” value in assay [5] came out at 1.1 fold.

B4: IL6R-BP471/IL6R-L (antibody, human IgG1, kappa)
heavy: QVQLQESGPGLVKPSETLSLTCAVSGHSISHDHAWSWVRQPPGEGLEWIGFISYSGITNYNPSLQGRVTISRDNSKNTLYLQMNSLRAEDTAVYYCARSLARTTAMDYWGEGTLVTVSSASTKGPSVFPLAPSSKSTSGGTAALGCLVKDYFPEPVTVSWNSGALTSGVHTFPAVLQSSGLYSLSSVVTVPSSSLGTQTYICNVNHKPSNTKVDKKVEPKSCDKTHTCPPCPAPDLLGDDSVFLFPPKPKDTLMISRTPEVTCVVVDVSDEDGEVKFNWYVDGVEVHNAKTKPREEQDNSTYRVVSVLTVLHQDWLNGKEYKCKVSNKALPRSIEKTISKAKGQPREPQVYTLPPSRDELTKNQVSLTCLVKGFYPSDIAVEWESNGQPENNYKTTPPVLDSDGSFFLYSKLTVDKSRWQQGNVFSCSVMHEALHNHYTQESLSLSP
light: not shown
Consider B4, for which the binding result in assay [3], in assay [4] and in [6] was “binds” throughout.

B5: IL6R-BP477/IL6R-L (antibody, human IgG1, kappa)
heavy: QVQLQESGPGLVKPSETLSLTCAVSGHSISHDHAWSWVRQPPGEGLEWIGFISYSGITNYNPSLQGRVTISRDNSKNTLYLQMNSLRAEDTAVYYCARSLARTTAMDYWGEGTLVTVSSASTKGPSVFPLAPSSKSTSGGTAALGCLVKDYFPEPVTVSWNSGALTSGVHTFPAVLQSSGLYSLSSVVTVPSSSLGTQTYICNVNHKPSNTKVDKKVEPKSCDKTHTCPPCPAPDLLGDDSVFLFPPKPKDTLMISRTPEVTCVVVDVSDEDGEVKFNWYVDGVEVHNAKTKPREEQDNSTYRVVSVLTVLHQDWLNGKEYKCKVSNKGLPRSIEKTISKAKGQPREPQVYTLPPSRDELTKNQVSLTCLVKGFYPSDIAVEWESNGQPENNYKTTPPVLDSDGSFFLYSKLTVDKSRWQQGNVFSCSVMHEALHNHYTQESLSLSP
light: not shown
As for B5, the binding result in [3], in assay [4] and in assay [6] was “binds” each time.

B6: IL6R-BP473/IL6R-L (antibody, human IgG1, kappa)
heavy: QVQLQESGPGLVKPSETLSLTCAVSGHSISHDHAWSWVRQPPGEGLEWIGFISYSGITNYNPSLQGRVTISRDNSKNTLYLQMNSLRAEDTAVYYCARSLARTTAMDYWGEGTLVTVSSASTKGPSVFPLAPSSKSTSGGTAALGCLVKDYFPEPVTVSWNSGALTSGVHTFPAVLQSSGLYSLSSVVTVPSSSLGTQTYICNVNHKPSNTKVDKKVEPKSCDKTHTCPPCPAPDLLGDDSVFLFPPKPKDTLMISRTPEVTCVVVDVSDEDGEVKFNWYVDGVEVHNAKTKPREEQDNSTYRVVSVLTVLHQDWLNGKEYKCKVSNKGLPRPIEKTISKAKGQPREPQVYTLPPSRDELTKNQVSLTCLVKGFYPSDIAVEWESNGQPENNYKTTPPVLDSDGSFFLYSKLTVDKSRWQQGNVFSCSVMHEALHNHYTQESLSLSP
light: not shown
For the molecule B6, the binding result in assay [3], in [4] and in assay [6] was “binds” each time. The “fold increase of binding against IL6R-BP230/IL6R-L” value in assay [5] was 1.2 times.

B7: IL6R-BP563/IL6R-L (antibody, human IgG1, kappa)
heavy: QVQLQESGPGLVKPSETLSLTCAVSGHSISHDHAWSWVRQPPGEGLEWIGFISYSGITNYNPSLQGRVTISRDNSKNTLYLQMNSLRAEDTAVYYCARSLARTTAMDYWGEGTLVTVSSASTKGPSVFPLAPSSKSTSGGTAALGCLVKDYFPEPVTVSWNSGALTSGVHTFPAVLQSSGLYSLSSVVTVPSSSLGTQTYICNVNHKPSNTKVDKKVEPKSCDKTHTCPPCPAPDLLGDDSVFLFPPKPKDTLMISRTPEVTCVVVDVSEEDGDVKFNWYVDGVEVHNAKTKPREEQDNSTYRVVSVLTVLHQDWLNGKEYKCKVSNKALPRPIEKTISKAKGQPREPQVYTLPPSRDELTKNQVSLTCLVKGFYPSDIAVEWESNGQPENNYKTTPPVLDSDGSFFLYSKLTVDKSRWQQGNVFSCSVMHEALHNHYTQESLSLSP
light: not shown
notes: Anti-human IL-6R IgG1; alterations introduced into IL6R-B3 (G1d with K439E)
Turning to B7, the “KD(IIaH)/KD(IIb)” value in assay [7] was found to be 525. The “KD(IIaR) of the parent polypeptide/KD(IIaR) of the altered polypeptide” value in assay [8] worked out at 2.4. Besides, in [9], the “KD(IIb) of the parent polypeptide/KD(IIb) of the altered polypeptide” value is 196. The “KD(IIaR)/KD(IIb)” value in [10] is 29.1. Also, the dissociation constant (Kd) came out at 460 nM in assay [11], 12 nM in assay [12], 8300 nM in assay [13] and 16 nM in assay [14].

B8: IL6R-BP565/IL6R-L (antibody, human IgG1, kappa)
heavy: QVQLQESGPGLVKPSETLSLTCAVSGHSISHDHAWSWVRQPPGEGLEWIGFISYSGITNYNPSLQGRVTISRDNSKNTLYLQMNSLRAEDTAVYYCARSLARTTAMDYWGEGTLVTVSSASTKGPSVFPLAPSSKSTSGGTAALGCLVKDYFPEPVTVSWNSGALTSGVHTFPAVLQSSGLYSLSSVVTVPSSSLGTQTYICNVNHKPSNTKVDKKVEPKSCDKTHTCPPCPAPDLLGDDSVFLFPPKPKDTLMISRTPEVTCVVVDVAEEDGEVKFNWYVDGVEVHNAKTKPREEQDNSTYRVVSVLTVLHQDWLNGKEYKCKVSNKALPRPIEKTISKAKGQPREPQVYTLPPSRDELTKNQVSLTCLVKGFYPSDIAVEWESNGQPENNYKTTPPVLDSDGSFFLYSKLTVDKSRWQQGNVFSCSVMHEALHNHYTQESLSLSP
light: not shown
notes: as for B7
Consider B8, for which, in assay [7], the “KD(IIaH)/KD(IIb)” value stood at 856. Also, in assay [8], the “KD(IIaR) of the parent polypeptide/KD(IIaR) of the altered polypeptide” value came out at 4.8. The “KD(IIb) of the parent polypeptide/KD(IIb) of the altered polypeptide” value in assay [9] came out at 565. Moreover, the “KD(IIaR)/KD(IIb)” value in assay [10] was determined as 41.5. The Kd in [11] stood at 230 nM; in assay [12], 2.4 nM; in [13], 4700 nM; in assay [14], 5.5 nM.
